What was measured:
DSS-induced colitis = DSS-induced colitis dose-response (0.3, 3, 10, 30 mg/kg): in-life, necropsy, histology; format: in vivo, C57BL6/J mice
Procedure: DSS-induction of murine colitis was performed by Bolder BioPATH, Inc. (CO, USA). Female C57BL6/J mice (8-10 weeks old) were given 2.5% dextran sodium sulfate (w/v) (Spectrum, Lot #2DC0020) ad libitum in the drinking water from day 0 through day 7. On day 7, DSS was replaced with water, and the animals were maintained until day 10.
Colon histology was scored based on inflammation, gland loss, erosion and hyperplasia (max of 5 each), and these were totaled in the summary score. […] Five additional parameters (edema, neutrophil infiltration, mucosal thickness, lymphoid aggregate and lymphoid aggregate size) were also quantified. […] These histological results thus indicate a mild degree of local drug efficacy.

IL-1Ra = assay: Systemic IL-1Ra in non-inflamed mice (ELISA MSD); format: in vivo; settings: construct 10 mg/kg; rhIL-10 3 mg/kg; oral
[1] = Purification with and without sulfitolysis: SEC-HPLC forms, yield and dimer recovery after Capto Q; settings: for Dimer Purity after Capto Q Chromatography: Capto Q load 1680 mg; for Dimer Purity: after Capto Q chromatography
Procedure: Refolding in both processes was carried out at 4° C. The refolding solution used in both processes contained 1 mM reduced glutathione, 0.5 mM oxidized glutathione, 1M Arginine-HCl, 250 mM sucrose, 100 mM Tris pH 8.5 at 4° C., and 2 mM EDTA.

[2] = Compression force screening, tablet properties and dimer recovery on dissolution; format: physicochemical; settings: F1 and F2 tablets
Procedure: Various compression forces were used to create F1 tablets (TABLE 31) and F2 tablets (TABLE 32). Dimer purity of the target construct was also examined following compaction into a tablet. […] Dimer recovery was also assessed following dissolution of various tablets at pH 7.0 (FIGS. 20A-20D).
An additional tablet (F3) was created, which was similar to an F1 tablet but with glyceryl dibehenate in place of magnesium stearate (TABLE 33). This substitution was made due to incompatibility of magnesium stearate in dissolution of target constructs in solution.

[3] = system: polarized gut epithelial cells; assay: In vivo transcytosis across polarized gut epithelial cells, rat jejunum, microscopy; set-up: species or system Wistar rats; settings: luminal application to rat jejunum
Procedure: In vivo transcytosis was tested using male Wistar rats. Male Wistar rats were housed 3-5 per cage with a 12/12 h light/dark cycle and were about 225-275 g (approximately 6-8 weeks old) when placed on study. Experiments were conducted during the light phase using a non-recovery protocol that uses continuous isoflurane anesthesia. A 4-5 cm midline abdominal incision that exposed mid-jejunum regions was conducted. Stock solutions at 3.86×10^−5 M of delivery construct were prepared in phosphate buffered saline (PBS), with 50 μL (per 250 g rat) being administered by intraluminal injection (ILI) using a 29-gauge needle. The injection site mesentery was then marked with a permanent marker. […]
The delivery construct (SEQ ID NO: 5) included the cholix carrier with SEQ ID NO: 4 (and further including an N-terminal methionine) coupled to the IL-10 payload having an amino acid set forth in SEQ ID NO: 2 via a spacer having an amino acid set forth in SEQ ID NO: 6. Green fluorescence indicates the presence of IL-10 (via staining with an anti-IL-10 antibody). Blue fluorescence indicates DAPI staining, which labels DNA, and red fluorescence indicates the presence of CK-8 (cytokeratin-8) with which a cholix-derived carrier can co-localize (e.g., in a supranuclear region of an epithelial cell) during transcytosis. […]

[4] = PK/PD by route (oral, subcutaneous, intravenous) in NHP; format: in vivo, Macaca fascicularis
Excerpt: For oral administration the IL-10 delivery construct was formulated in size 0 enteric coated capsules. For intravenous or subcutaneous administration it was formulated as a liquid in DS lyo formulation.

colonic tissue = assay: Pan-colonic administration in NHP: colonic biopsies (IL-10, IL-1Ra, pSTAT3/STAT3, cytokines, gene expression); format: in vivo, cynomolgus monkeys
Procedure: IL-10 delivery construct solution (at concentrations of 0.1, 0.3 and 1.0 mg/mL for the low, mid and high-dose groups respectively) was administered via the rectal route using sigmoidoscopy and a syringe connected to a spray nozzle with a 360° spray pattern. Serial biopsy samples were collected by sigmoidoscopy (pre-dose, 0.25, 0.5, 0.75, 8 and 24-28 hours post dose). Serial plasma samples from 0 min pre-dose to between 24-28 hours post-dose were collected for analysis for the IL-10 delivery construct.
Phosphorylation of STAT3 is an early downstream event following IL-10 receptor activation.
Colonic biopsies at each tissue timepoint were analyzed for local concentration of IL-10 delivery construct, total IL-10, IL-1Ra, soluble cytokines, activation of STAT3 and gene expression following administration of the IL-10 delivery construct. […] In addition, STC1, MTNR1A and VNN2 encode proteins that suppress the NFkβ signaling pathway, a pathway through which key pro-inflammatory cytokines are regulated. […] This is consistent with the ability of IL-10 to suppress these cells' activation or differentiation towards a pro-inflammatory immune phenotype.

IL-1Ra, IL-1β = assay: RT-PCR of IL-1Ra and IL-1β in near-distal colon; format: in vivo, mice; settings: 9 mg/kg
[5] = No Sulfitolysis of SIB (2x UF/DF at 4° C.), SEC-HPLC before AEX
[6] = No Sulfitolysis of SIB (2x UF/DF for 66 h RT), SEC-HPLC before AEX
[7] = No Sulfitolysis of SIB (97 mL Capto Q)
[8] = Sulfitolysis of SIB (97 mL Capto Q)
[9] = Sulfitolysis of SIB (TFF-2 for 20 h at RT), SEC-HPLC after UF/DF, before AEX

B1: IL-10 delivery construct: recombinant homodimeric fusion protein: N-terminal methionine, cholix386 domain, polyGlySer spacer, recombinant human IL-10 (protein)
chain: MVEEALNIFDECRSPCSLTPEPGKPIQSKLSIPSDVVLDEGVLYYSMTINDEQNDIKDEDKGESIITIGEFATVRATRHYVNQDAPFGVIHLDITTENGTKTYSYNRKEGEFAINWLVPIGEDSPASIKISVDELDQQRNIIEVPKLYSIDLDNQTLEQWKTQGNVSFSVTRPEHNIAISWPSVSYKAAQKEGSRHKRWAHWHTGLALCWLVPMDAIYNYITQQNCTLGDNWFGGSYETVAGTPKVITVKQGIEQKPVEQRIHFSKGNAMSALAAHRVCGVPLETLARSRKPRDLTDDLSCAYQAQNIVSLFVATRILFSHLDSVFTLNLDEQEPEVAERLSDLRRINENNPGMVTQVLTVARQIYNDYVTHHPGLTPEQTSAGAQAGGGGSGGGGSGGGGSPGQGTQSENSCTHFPGNLPNMLRDLRDAFSRVKTFFQMKDQLDNLLLKESLLEDFKGYLGCQALSEMIQFYLEEVMPQAENQDPDIKAHVNSLGENLKTLRLRLRRCHRFLPCENKSKAVEQVKNAFNKLQEKGIYKAMSEFDIFINYIEAYMTMKIRN
modifications: homodimer
- edema width, mucosal thickness, hyperplasia in the mid region (DSS-induced colitis; 30 mg/kg, relative to Vehicle): significantly improved
- colon length (DSS-induced colitis; 10 and 30 mg/kg, p<0.05 vs vehicle): Significant improvement in colon length
- DSS-induced weight loss (DSS-induced colitis; construct 30 mg/kg, CsA 75 mg/kg, q.d. oral): significantly reduced DSS-induced weight loss
- summed histology score (inflammation, gland loss, erosion, hyperplasia) (DSS-induced colitis; mouse, in vivo): did not reveal any significant improvements
- increase of systemic IL-1Ra (IL-1Ra): about 3 fold
- Aggregate % [1, 5]: 36%
- Monomer % [1, 5]: 22%
- Aggregate % [1, 6]: 57%
- Monomer % [1, 6]: 11%
- Dimer Purity after Capto Q Chromatography [1, 7]: 84%
- Dimer Purity [1, 7]: 84%
- Dimer Purity after Capto Q Chromatography [1, 8]: 74%
- Dimer Purity [1, 8]: 74%
- Aggregate % [1, 9]: 68%
- Monomer % [1, 9]: 8%
- Dimer Purity ([1]; Sulfitolysis of SIB (average of 3)): 82-83%
- robustness of dimer to compaction into tablet [2]: robust to compaction and granulation, although some aggregation was observed in final tablet form
- earliest time of IL-10 payload transport into the lamina propria [3]: ≤ 1 min
- systemic levels of IL-10 after oral treatment ([4]; oral 1 mg or 5 mgs vs SC 0.2 mg/kg, IV 0.05 mg/kg): minimal systemic levels of IL-10
- IL-1Ra/IL-1β ratio ([4]; subcutaneous or intravenous administration): minimal effect
- IL-1Ra concentration in colonic tissue (colonic tissue; 1, 3, 10 mg): not further augmented
- total IL-10 in colonic tissue (colonic tissue; 1, 3, 10 mg): dose-dependent increase in total IL-10
- colonic MMP1, MMP3, MMP19 (colonic tissue; 8 h): also upregulated
- colonic TIMP1, tissue repair and anti-microbial genes (colonic tissue; 8 h): also increased
- colonic anti-inflammatory genes (CD163, miR24-2, NOX1 ...) (colonic tissue; 8 h): upregulated a number of anti-inflammatory genes
- colonic pro-inflammatory genes (MHCII, PLA2G2D, CCL20, CCL13) (colonic tissue; 8 h): decreased a number of pro-inflammatory genes
- colonic expression of CYP1A1 (colonic tissue; 8 h, 12-hour fast prior to treatment): downregulated
- colonic tissue pSTAT3/STAT3 (colonic tissue; all doses tested): Higher ratios of colonic tissue pSTAT3/STAT3
- induction of pro-inflammatory cytokines in colonic tissue (colonic tissue; cynomolgus monkey, in vivo): not observed
- time of peak total IL-10 in colonic tissue (colonic tissue; first sampling time point): 15 min
- IL-1Ra/IL-1β mRNA ratio in colonic tissue (IL-1Ra, IL-1β): increase
- mRNA expression of IL-1Ra in near-distal colonic tissue (IL-1Ra, IL-1β): trend towards augmented mRNA expression of IL-1Ra
